Data reported in publication PMC9372435, “Peptide Centric Vβ Specific Germline Contacts Shape a Specialist T Cell Response” (Frontiers in Immunology, 2022).

system: tetramer+ CD8 T cells; assay: Immunization with peptide-loaded dendritic cells, expansion of tetramer+ CD8 T cells; assay type: in vivo; conditions: F1 (H2^bxd) mice, 5x10^6 dendritic cells loaded with 1μM peptide s.c., spleen 7 days post immunization, versus numbers in naive mice
Method: Bone marrow-derived dendritic cells from male mice were incubated with 1μM of peptide for 3 hours at 37°C. Cells were washed and 5x10^6 peptide-loaded dendritic cells were injected subcutaneously into naive F1 (H2^bxd) female mice. Mice were sacrificed 7 days post immunization. Peptide sequences: HF10: HPGSVNEFDF; ROP5: YAVANYFFL; GRA4: SPMNGGYYM.
Figure 1 Characteristics of the L^d-HF10 specific T cell response. (A) T. gondii-specific CD8 T cells were quantified by pMHC tetramer staining and flow cytometry of splenocytes at different time points after intraperitoneal infection of F1 (B6xB6.C) mice. Fold change between naive and expanded T cells was calculated using the average number of tetramer+ cells in each population in naive mice (GRA6 = 74.4, ROP5: 654.9, GRA4: 1330). (B) Flow cytometric analysis of size (FSC or forward scatter) or expression of activation and effector markers (CD71, KLRG1, and CD25) on gated tetramer^+ splenic CD8 T cells at day 5 post infection. (C) Mice were immunized with bone marrow-derived dendritic cells loaded with the indicated peptides. Expanded tetramer^+ CD8 T cells were quantified by tetramer staining of splenocytes 7 days post immunization (open circles). Numbers of tetramer^+ CD8 T cells in the spleen were quantified by tetramer enrichment of naïve mice and were used to calculate the fold expansion of each antigen-specific T cell population (closed circles). Statistical significance of differences in fold change between the three groups was calculated using Mann-Whitney tests. GRA6 vs. GRA4: p < 0.0001, GRA6 vs. ROP5: p < 0.0001, GRA4 vs. ROP5: p=0.0002. Statistical significance between tetramer+ T cell populations was calculated by two-way ANOVA. The interaction p-values are as follows: GRA6 vs. GRA4: p < 0.0001, GRA6 vs. ROP5: p < 0.0001, GRA4 vs. ROP5: p=0.99. (D) The frequency of Vβ2 usage amongst L^d-HF10 specific splenic CD8 T cells tetramer enriched from naïve mice or found in T. gondii-infected mice was determined by flow cytometry. […] Clonal diversity in L^d-HF10 specific CD8 T cells was analyzed using the TCRdist algorithm ([40]). […]

Substance | Fold expansion of tetramer+ CD8 T cells [x]
HPGSVNEFDF [HF10, 10mer peptide from the C-terminus of T. gondii protein GRA6, presented by MHC-I L^d] | 4000
SPMNGGYYM [GRA4] | 50
YAVANYFFL [ROP5] | 300

target: TG6 TCR, acid-base leucine zipper stabilized, soluble, biotinylated (mouse); assay: SPR; conditions: not given

Substance | Kd [µM]
soluble L^d-HF10 (HF10 fused via a linker to β2m, disulfide-trapped), wild-type peptide (peptide-MHC) | 0.42
soluble L^d-HF10 (L^d α1-α3 with HF10 fused via a linker to β2m, disulfide-trapped) (peptide-MHC) | 0.4
soluble L^d-HF10 with alanine at peptide position 1 (peptide-MHC) | 1.02
soluble L^d-HF10 with alanine at peptide position 2 (peptide-MHC) | 1.84
soluble L^d-HF10 with alanine at peptide position 4 (peptide-MHC) | 2.4
soluble L^d-HF10 with alanine at peptide position 5 (peptide-MHC) | 1.85
soluble L^d-HF10 with alanine at peptide position 9 (peptide-MHC) | 170

system: TG6 TCR; assay: Surface plasmon resonance of L^d-HF10 (WT and alanine variants) binding to immobilised TG6 TCR; parameters: species or system mouse; conditions: SPR, BIAcore SA chip, ~2000 RU biotinylated TG6 TCR; soluble L^d-peptide injected; two-state reaction fit
Source text: We used two systems to generate L^d-HF10. For biophysical and crystallographic studies of pMHC, we produced soluble L^d-HF10 by baculovirus-infected insect cell expression ([26]). The DNA encoding L^d (α1-α3) and HF10 (or alanine substituted variants) fused via a linker to β2m were cloned into pbac plasmid under polyhedrin and p10 promoters to produce secreted soluble Ld-HF10 from Hi5 insect cells. In this construct, L^d Tyr 84 and Gly at peptide p12 position from the linker that attaches β2m to pHF10 were mutated to cysteines to form a disulfide bond ([27]). Secreted L^d-HF10 in insect cell medium was captured with immunoaffinity chromatography and further purified by GE Healthcare FPLC Superdex 200 10/300 GL size exclusion column. For the crystallography of the TCR/peptide/MHC ternary complex, we produced the wild type L^d variable region (α1-α2). L^d (α1-α2) was expressed in E. coli BL21 as an inclusion body, solubilized in 8M urea, and refolded with synthetic HF10 peptide (HPGSVNEFDF, ordered from Peptide 2.0 Inc.) ([28], [29]). Refolded L^d-HF10 was further purified with a HiLoad Superdex 200 26/600 size chromatography column.
TG6 α and β TCR chains were also produced by both baculovirus insect cell and bacterial expression systems. […]
Approximately 2000 RU of biotinylated TG6 TCR was captured in the flow cells of a BIAcore streptavidin (SA) BIAsensor chip. Various concentrations of insect cell-produced L^d-HF10 and its mutated variant peptides were injected into the sensor chip and the association and dissociation kinetics were recorded and then corrected for the fluid phase SPR signal using the data from the biotinylated mouse BDC2.5 TCR. Kinetics was analyzed with BIAcore BIAEval 4 software. […]
(A) Corrected surface plasmon resonance (SPR) data for the binding of various concentrations of soluble L^d-HF10 to ~2000 RU of biotinylated TG6 TCR immobilized in flow cell on SA sensor chip. […] Upregulation of surface CD25 and CD44 in response to TCR stimulation was measured by flow cytometry. […]

Substance | ka2 [s⁻¹] | kd1 [s⁻¹] | kd2 [s⁻¹]
HPGSVNEFDF [HF10, 10mer peptide from the C-terminus of T. gondii protein GRA6, presented by MHC-I L^d] | 0.002 | 0.014 | 0.005

target: H2-L^d on TAP-deficient RMA-S.L^d cells; assay: flow cytometry on cells (RMA-S.Ld surface Ld stabilisation); conditions: read at the highest peptide concentration, log [peptide in µM] = 0; parent: est. 670; read off a plot

Substance | response [MFI]
HF10 peptide p1A | 550
HF10 peptide p2A | 100
HF10 peptide p3A | 690
HF10 peptide p4A | 720
HF10 peptide p5A | 400
HF10 peptide p6A | 440
HF10 peptide p7A | 670
HF10 peptide p8A | 120
HF10 peptide p9A | 430
HF10 peptide p10A | 60
